Experiments:
[1] = target: T1, recombinant Bet v 1, major birch pollen allergen (Betula pendula (B. verrucosa), UniProt P15494); experiment: ELISA; inhibition ELISA: plate-bound allergen (1 ug/mL) pre-incubated with 20 ug/mL H3-1 or control ScFv, then sera of birch pollen-allergic patients diluted 1:5; bound IgE detected; % reduction against control ScFv; settings: both partners purified
T1 construct: Bet v 1, major birch pollen allergen, Swissprot P15494; also called rBet v 1; source: recombinant; materials described in Data S1

[2] = target: T2, Cor a 1, Bet v 1-related allergen from hazel (Corylus avellana, UniProt Q08407); experiment: as above; settings: both partners purified
T2 construct: Cor a 1, hazel allergen, Swissprot Q08407; source: recombinant; materials described in Data S1
Target sequence in this assay (Q08407 whole entry, looked up): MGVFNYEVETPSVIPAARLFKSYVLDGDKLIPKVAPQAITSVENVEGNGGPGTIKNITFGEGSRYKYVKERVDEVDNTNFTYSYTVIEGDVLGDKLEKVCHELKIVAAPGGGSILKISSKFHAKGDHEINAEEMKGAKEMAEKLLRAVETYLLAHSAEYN

[3] = target: T3, Mal d 1, Bet v 1-related allergen from apple (Malus domestica, UniProt Q9SYW3); experiment: as above; settings: both partners purified
T3 construct: Mal d 1, apple allergen, Swissprot Q9SYW3; source: recombinant; materials described in Data S1

[4] = target: T4, Aln g 1, Bet v 1-related allergen from alder (Alnus glutinosa, UniProt P38948); experiment: as above; settings: both partners purified
T4 construct: Aln g 1, alder pollen allergen, Swissprot P38948; source: recombinant; materials described in Data S1
Target sequence in this assay (P38948 whole entry, looked up): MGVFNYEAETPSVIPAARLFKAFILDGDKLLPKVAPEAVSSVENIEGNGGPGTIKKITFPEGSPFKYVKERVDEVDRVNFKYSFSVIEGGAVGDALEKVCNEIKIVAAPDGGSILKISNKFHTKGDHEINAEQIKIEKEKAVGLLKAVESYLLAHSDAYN

[5] = target: T2, Cor a 1, Bet v 1-related allergen from …; experiment: as above; settings: both partners purified; remark: listed apart in the source
Target sequence in this assay (Q08407 whole entry, looked up): as the sequence (Q08407 whole entry, looked up) above

[6] = target: T3, Mal d 1, Bet v 1-related allergen from …; experiment: as above; settings: both partners purified; remark: listed apart in the source
[7] = target: T4, Aln g 1, Bet v 1-related allergen from …; experiment: as above; settings: both partners purified; remark: listed apart in the source
Target sequence in this assay (P38948 whole entry, looked up): as the sequence (P38948 whole entry, looked up) above

[8] = target: T1, recombinant Bet v 1, major birch pollen …; experiment: SPR; Biacore 2000, 25°C; allergens amine-coupled to CM5 chip; reference cell BSA; H3-1 in HBS-EP pH 7.4 injected in twofold increasing concentrations at 30 uL/min; 1:1 interaction model; settings: both partners purified
[9] = target: T2, Cor a 1, Bet v 1-related allergen from …; experiment: as above; settings: both partners purified
[10] = target: T3, Mal d 1, Bet v 1-related allergen from …; experiment: as above; settings: both partners purified
[11] = target: T4, Aln g 1, Bet v 1-related allergen from …; experiment: as above; settings: both partners purified
[12] = target: T5, synthetic Bet v 1-derived peptide 5 (aa 130-160) (Betula pendula, UniProt P15494); experiment: ELISA; allergens, fragments, peptides or BSA coated at 4 ug/mL in 1xPBS; blocked with 1xPBS/3% BSA; 1 ug/mL H3-1 added; bound ScFv traced with anti-E Tag antibody; settings: both partners purified
T5 construct: Bet v 1, birch, Swissprot P15494, C-terminal peptide aa 130-160; also called C-terminal peptide 5; source: synthetic peptide
T5 chain: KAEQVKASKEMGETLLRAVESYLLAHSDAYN

bovine serum albumin = target: T6, bovine serum albumin (Bos taurus, UniProt P02769); experiment: as above; settings: both partners purified
T6 construct: bovine serum albumin, control protein; also called BSA

[13] = target: T1, recombinant Bet v 1, major birch pollen …; experiment: cell-based or functional assay

T3 sequence (Q9SYW3 entry or part of it): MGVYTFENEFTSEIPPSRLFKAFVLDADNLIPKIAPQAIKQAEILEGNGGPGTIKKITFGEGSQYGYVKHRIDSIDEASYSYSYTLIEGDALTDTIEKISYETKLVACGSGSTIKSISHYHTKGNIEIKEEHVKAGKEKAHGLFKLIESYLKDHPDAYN
T6 sequence (P02769 25-607): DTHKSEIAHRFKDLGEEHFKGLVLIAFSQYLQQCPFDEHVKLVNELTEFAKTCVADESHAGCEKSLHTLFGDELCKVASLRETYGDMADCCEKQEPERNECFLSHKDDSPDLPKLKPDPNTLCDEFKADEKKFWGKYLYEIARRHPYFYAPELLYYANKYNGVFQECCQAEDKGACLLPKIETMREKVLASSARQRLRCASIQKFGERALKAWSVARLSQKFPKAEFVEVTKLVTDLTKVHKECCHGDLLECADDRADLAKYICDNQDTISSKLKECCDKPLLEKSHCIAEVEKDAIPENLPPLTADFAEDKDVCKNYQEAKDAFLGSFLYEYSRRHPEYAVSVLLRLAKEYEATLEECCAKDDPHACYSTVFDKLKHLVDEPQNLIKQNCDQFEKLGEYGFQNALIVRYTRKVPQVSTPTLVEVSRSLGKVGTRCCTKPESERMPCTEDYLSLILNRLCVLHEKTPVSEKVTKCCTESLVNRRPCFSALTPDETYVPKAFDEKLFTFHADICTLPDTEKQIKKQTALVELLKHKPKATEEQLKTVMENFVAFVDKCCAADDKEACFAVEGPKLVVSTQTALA

B1: Bet v 1-specific IgG-derived ScFv H3-1 (scFv, V domains shown)
VH: QVQLVQSGAEVKKPGSSVKVSCKASGGTFSSYAISWVRQAPGQGLEWMGRIIPILGIVNYAQKFQGRVTITADKSTSTAYMELSSLRSEDTAVYYCAREPLGYCSGGSCYPLHNGMDVWGQGTTVTVSS
VL: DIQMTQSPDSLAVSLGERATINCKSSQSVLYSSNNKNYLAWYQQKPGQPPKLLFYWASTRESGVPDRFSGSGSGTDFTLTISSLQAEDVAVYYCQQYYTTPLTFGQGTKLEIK
notes: VH of H3-1 (H3-1_HV); (Gly4Ser)3 linker; V kappa of H3-1 (H3-1_KV); Cloned in phagemid pCANTAB 5E; The E tag is named for the direct ELISA (detection with anti-E Tag antibody); A form with a C-terminal His tag was also constructed; also called ScFv (clone H3-1); H3-1 ScFv; source: also tested as soluble ScFv after conversion of phage clones; not shown: E tag, C-terminal, kept
For B1, the “% inhibition of IgE binding, patient 1” value [1] was 60.9%, the “% inhibition of IgE binding, patient 5” value [1] was 27.6% and the “% inhibition of IgE binding, patient 7” value [1] was 42.2%. For the same binder, the “% inhibition of IgE binding, patient 9” value [1] was 52.8%, the “% inhibition of IgE binding, patient 10” value [1] was 41.7% and the “% inhibition of IgE binding, patient 11” value [1] was 51.3%. The “% inhibition of IgE binding, patient 12” value [1] was 61.4%, the “% inhibition of IgE binding, patient 13” value [1] was 50.5% and the “% inhibition of IgE binding, patient 16” value [1] was 49.2%. For the same binder, the “% inhibition of IgE binding, patient 17” value [1] was 51%, the “% inhibition of IgE binding, patient 18” value [1] was 57.4% and the “% inhibition of IgE binding, patient 19” value [1] was 54.6%. For the same binder, the “% inhibition of IgE binding, patient 20” value [1] was 15.8%, the “% inhibition of IgE binding, patient 21” value [1] was 44.9% and the “% inhibition of IgE binding, patient 22” value [1] was 62.9%. For the same binder, the “% inhibition of IgE binding, patient 23” value [1] was 47.3%, the “% inhibition of IgE binding, patient 24” value [1] was 44.3% and the “% inhibition of IgE binding, patient 25” value [1] was 62.9%. For the same binder, the “% inhibition of IgE binding, patient 26” value [1] was 50.6%, the “% inhibition of IgE binding, patient 27” value [1] was 62.1% and the “% inhibition of IgE binding, patient 29” value [1] was 38.8%. The “% inhibition of IgE binding, patient 30” value [1] was 56.8%, the “mean % inhibition of patients' IgE binding” value (“mean % inhibition” below) [1] was 45% and the “% inhibition of IgE binding, patient 1” value [2] was 32.7%. For the same binder, the “% inhibition of IgE binding, patient 5” value [2] was 29%, the “% inhibition of IgE binding, patient 7” value [2] was 19% and the “% inhibition of IgE binding, patient 9” value [2] was 48.9%. For the same binder, the “% inhibition of IgE binding, patient 10” value [2] was 8.6%, the “% inhibition of IgE binding, patient 12” value [2] was 44.9% and the “% inhibition of IgE binding, patient 13” value [2] was 35%. For the same binder, the “% inhibition of IgE binding, patient 16” value [2] was 18.4%, the “% inhibition of IgE binding, patient 17” value [2] was 43% and the “% inhibition of IgE binding, patient 18” value [2] was 40.9%. For the same binder, the “% inhibition of IgE binding, patient 19” value [2] was 33.6%, the “% inhibition of IgE binding, patient 20” value [2] was 33.9% and the “% inhibition of IgE binding, patient 21” value [2] was 6%. The “% inhibition of IgE binding, patient 22” value [2] was 53.7%, the “% inhibition of IgE binding, patient 23” value [2] was 21.1% and the “% inhibition of IgE binding, patient 24” value [2] was 36%. For the same binder, the “% inhibition of IgE binding, patient 25” value [2] was 57.6%, the “% inhibition of IgE binding, patient 26” value [2] was 22% and the “% inhibition of IgE binding, patient 27” value [2] was 31.2%. For the same binder, the “% inhibition of IgE binding, patient 28” value [2] was 45.1%, the “% inhibition of IgE binding, patient 29” value [2] was 39.6% and the “% inhibition of IgE binding, patient 30” value [2] was 29.5%. The “mean % inhibition” value [2] was 29.1%, the “% inhibition of IgE binding, patient 1” value [3] was 8.6% and the “% inhibition of IgE binding, patient 5” value [3] was 3.6%. For the same binder, the “% inhibition of IgE binding, patient 9” value [3] was 10.9%, the “% inhibition of IgE binding, patient 10” value [3] was 10.5% and the “% inhibition of IgE binding, patient 11” value [3] was 19.1%. The “% inhibition of IgE binding, patient 12” value [3] was 22.4%, the “% inhibition of IgE binding, patient 13” value [3] was 27.4% and the “% inhibition of IgE binding, patient 16” value [3] was 2.3%. For the same binder, the “% inhibition of IgE binding, patient 17” value [3] was 40.5%, the “% inhibition of IgE binding, patient 18” value [3] was 17.1% and the “% inhibition of IgE binding, patient 19” value [3] was 15.3%. The “% inhibition of IgE binding, patient 20” value [3] was 16.5%, the “% inhibition of IgE binding, patient 21” value [3] was 11.9% and the “% inhibition of IgE binding, patient 22” value [3] was 26.3%. The “% inhibition of IgE binding, patient 23” value [3] was 3%, the “% inhibition of IgE binding, patient 24” value [3] was 19.3% and the “% inhibition of IgE binding, patient 25” value [3] was 17.9%. The “% inhibition of IgE binding, patient 26” value [3] was 19.7%, the “% inhibition of IgE binding, patient 27” value [3] was 27.4% and the “% inhibition of IgE binding, patient 28” value [3] was 8.2%. For the same binder, the “% inhibition of IgE binding, patient 29” value [3] was 22.5%, the “mean % inhibition” value [3] was 16.1% and the “% inhibition of IgE binding, patient 1” value [4] was 8.2%. For the same binder, the “% inhibition of IgE binding, patient 7” value [4] was 6.3%, the “% inhibition of IgE binding, patient 9” value [4] was 15.3% and the “% inhibition of IgE binding, patient 11” value [4] was 22.5%. For the same binder, the “% inhibition of IgE binding, patient 12” value [4] was 14.5%, the “% inhibition of IgE binding, patient 13” value [4] was 11.4% and the “% inhibition of IgE binding, patient 16” value [4] was 16.3%. For the same binder, the “% inhibition of IgE binding, patient 17” value [4] was 25%, the “% inhibition of IgE binding, patient 19” value [4] was 16.5% and the “% inhibition of IgE binding, patient 20” value [4] was 6.9%. The “% inhibition of IgE binding, patient 21” value [4] was 13.4%, the “% inhibition of IgE binding, patient 22” value [4] was 37.1% and the “% inhibition of IgE binding, patient 23” value [4] was 6.2%. The “% inhibition of IgE binding, patient 24” value [4] was 12.9%, the “% inhibition of IgE binding, patient 25” value [4] was 17.5% and the “% inhibition of IgE binding, patient 26” value [4] was 23.7%. The “% inhibition of IgE binding, patient 27” value [4] was 26.1%, the “% inhibition of IgE binding, patient 28” value [4] was 26.1% and the “% inhibition of IgE binding, patient 30” value [4] was 10.7%. For the same binder, the “mean % inhibition” value [4] was 13.2%, the “mean % inhibition” value [5] was 24.3% and the “mean % inhibition” value [6] was 13.5%. The “mean % inhibition” value [7] was 11.9%, the Kd [8] was 0.622 nM and the koff [8] was 0.00022 s⁻¹. For the same binder, the kon [8] was 353000 M⁻¹ s⁻¹, the Kd [9] was 6.83 nM and the koff [9] was 0.000299 s⁻¹. It also gave a kon [9] of 43800 M⁻¹ s⁻¹, a Kd [10] of 2.57 nM and a koff [10] of 0.000145 s⁻¹. The kon [10] was 56400 M⁻¹ s⁻¹, the Kd [11] was 2.96 nM and the koff [11] was 0.00112 s⁻¹. The kon [11] was 378000 M⁻¹ s⁻¹, the binding result [12] was “binds” and the binding result (bovine serum albumin) was “no binding (tested: 1 μg/mL H3-1)”. The “Bet v 1-induced basophil activation (CD203c upregulation), blood of patient #12; Bet v 1 pre-incubated with H3-1 against control ScFv” value [13] was ~5 fold, the “Bet v 1-induced basophil activation (CD203c upregulation), blood of patient #14; Bet v 1 pre-incubated with H3-1 against control ScFv; augmentation, not reduction” value [13] was ~5 fold and the “Bet v 1-induced basophil activation (CD203c upregulation), blood of patient #22; Bet v 1 pre-incubated with H3-1 against control ScFv” value [13] was ~25 fold. For the same binder, the “Bet v 1-induced basophil activation (CD203c upregulation), blood of patient #26; Bet v 1 pre-incubated with H3-1 against control ScFv” value [13] was ~5 fold.
